Literature values, collected in publication PMC4799752.

Target: transferrin receptor 2 (Homo sapiens) (UniProt Q9UP52)
UniProt Q9UP52, sequence (Q9UP52 whole entry): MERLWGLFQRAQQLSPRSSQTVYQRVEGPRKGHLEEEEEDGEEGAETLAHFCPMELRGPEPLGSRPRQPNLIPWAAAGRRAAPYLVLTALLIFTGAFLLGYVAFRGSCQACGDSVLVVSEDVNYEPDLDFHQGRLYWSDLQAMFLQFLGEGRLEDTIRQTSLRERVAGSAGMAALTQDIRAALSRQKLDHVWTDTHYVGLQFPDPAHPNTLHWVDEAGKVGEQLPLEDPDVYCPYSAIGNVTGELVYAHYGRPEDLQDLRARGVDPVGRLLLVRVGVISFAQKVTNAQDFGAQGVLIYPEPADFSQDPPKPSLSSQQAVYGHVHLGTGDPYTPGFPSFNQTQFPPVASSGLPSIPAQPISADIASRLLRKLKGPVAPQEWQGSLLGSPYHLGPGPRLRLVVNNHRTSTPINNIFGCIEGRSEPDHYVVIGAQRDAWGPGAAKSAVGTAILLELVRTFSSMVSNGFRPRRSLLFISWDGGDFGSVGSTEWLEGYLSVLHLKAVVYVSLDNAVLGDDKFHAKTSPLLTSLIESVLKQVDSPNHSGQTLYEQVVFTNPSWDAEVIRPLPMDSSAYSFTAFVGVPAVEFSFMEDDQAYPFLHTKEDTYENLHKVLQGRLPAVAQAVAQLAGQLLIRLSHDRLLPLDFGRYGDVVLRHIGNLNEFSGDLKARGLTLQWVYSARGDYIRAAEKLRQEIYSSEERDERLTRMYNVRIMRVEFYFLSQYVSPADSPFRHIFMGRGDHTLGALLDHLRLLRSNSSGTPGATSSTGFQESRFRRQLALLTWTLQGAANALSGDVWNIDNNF

transferrin, sequence (P02787 20-698): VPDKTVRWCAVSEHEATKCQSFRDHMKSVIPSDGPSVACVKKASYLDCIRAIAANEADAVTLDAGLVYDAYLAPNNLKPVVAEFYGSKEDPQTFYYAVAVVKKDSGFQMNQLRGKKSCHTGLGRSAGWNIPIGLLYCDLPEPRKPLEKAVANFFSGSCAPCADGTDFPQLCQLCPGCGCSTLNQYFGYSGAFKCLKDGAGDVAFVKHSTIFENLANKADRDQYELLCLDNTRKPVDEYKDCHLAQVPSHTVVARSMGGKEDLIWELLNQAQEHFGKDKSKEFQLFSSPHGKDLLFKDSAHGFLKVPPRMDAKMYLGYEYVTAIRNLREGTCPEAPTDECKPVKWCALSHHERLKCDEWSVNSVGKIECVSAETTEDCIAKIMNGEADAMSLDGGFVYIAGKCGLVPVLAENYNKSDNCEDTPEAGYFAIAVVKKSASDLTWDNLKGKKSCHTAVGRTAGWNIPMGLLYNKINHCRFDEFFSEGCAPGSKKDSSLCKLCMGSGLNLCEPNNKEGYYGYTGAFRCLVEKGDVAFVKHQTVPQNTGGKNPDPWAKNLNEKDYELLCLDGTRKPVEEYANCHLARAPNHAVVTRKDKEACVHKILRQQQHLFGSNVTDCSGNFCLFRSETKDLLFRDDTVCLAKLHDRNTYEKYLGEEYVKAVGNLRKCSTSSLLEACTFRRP

Kd: 30 nM
Substance: transferrin (from UniProt P02787)
